From the MegaScale stability set (Tsuboyama et al. 2023)

B1: 2M8U (parent)
chain: TKAQVIEAFKVFDRDGNGYVTVDYLRKVLNELGDMMPADEIEEMIYEADPQNSGYVQYETFVGMLFL

Variants of: B1
Test: folding stability dG (cDNA display proteolysis); higher = more stable
Settings: PBS, room temperature

Folding stability dG [kcal/mol]: each site, then its substitutions
T21: M 3.4, K 3.47, H 4.14, C 3.42, I 2.89, Q 3.7, P 3.46, L 3.55, G 3.51, W 3.22, N 3.24, R 3.74, A 3.65, D 3.16, Y 3.38, S 3.64, V 3.05, E 3.65, F 3.29
L25: F 2.91, D 1.27, K 2.23, R 2.26, I 3.14, T 2.65, V 3.01, H 1.16, S 1.72, P 1.25, G 1.92, Q 2.02, A 3.2, W 2.53, C 2.88, M 2.69, Y 1.83, E 2.09, N 1.47
E31: I 3.66, S 3.64, T 3.58, C 3.41, A 3.47, N 3.36, M 3.74, Q 3.53, V 3.49, W 3.64, R 3.51, H 3.45, F 3.53, K 3.49, D 3.62, L 3.81, G 3.4, Y 3.4, P 2.78
N17: C 2.99, V 3.27, K 3.01, I 3.1, Q 3.12, R 3.04, P 1.86, G 2.96, M 3.15, A 3.12, T 3.95, L 3.39, S 4.02, E 3.08, F 3.06, W 2.95, Y 3, D 3.44, H 3.03
Y19: K 3.07, V 3.05, M 3.3, S 2.9, F 3.66, I 3.21, A 2.7, L 3.26, C 2.74, H 2.94, N 2.75, G 1.95, W 3.21, D 2.21, P 1.9, Q 2.91, E 2.63, T 3.29, R 2.76
G18: S 2.42, F 2.65, Y 2.36, C 2.87, I 2.57, H 2.17, N 2.23, E 2.38, P 2.71, Q 2.3, R 2.06, V 2.61, D 2.28, A 2.63, K 2.53, W 2.68, M 2.62, T 2.38, L 2.92
D15: W 2.76, R 1.81, N 2.97, V 2.94, Y 2.96, F 2.79, S 2.84, C 2.9, M 3.03, G 2.75, T 2.97, H 2.69, E 3.55, K 2.32, L 3.17, I 3.02, A 3.13, P 2.51, Q 3.02
V28: C 2.6, Y 2.78, I 3.32, R 2.41, F 2.86, M 2.65, Q 2.25, H 2.17, P 1.37, T 2.76, G 2.32, K 2.47, L 2.71, S 2.18, N 1.84, D 0.754, E 1.63, W 2.77, A 2.63
V20: S 2.45, Y 1.85, A 2.73, L 2.9, M 2.59, N 2.76, F 2.47, W 2.96, D 2.73, E 2.16, C 3.04, T 3.33, P 2.1, Q 2.15, H 1.98, I 3.62, R 2.18, G 1.83, K 1.46
K27: N 3.12, D 2.89, T 3.26, P 2.04, L 3.72, C 3.05, R 3.48, G 2.92, Q 3.53, W 3.42, M 3.55, S 3.2, F 3.58, Y 3.43, A 3.38, E 3.28, H 3.44, I 3.66, V 3.62
R14: Y 3.69, W 3.32
Y24: F 3.51, N 4.5, G 3.47, S 4.27, E 4.23, D 4.63, V 4.38, A 4.19, I 4.54, L 4, C 4.02, M 4.04, P 1.24, R 3.94, K 3.82, H 4.05, W 3.24, Q 4.33, T 4.42
L29: N 1.86, W 2.91, K 1.33, G 1.58, C 3.16, S 2.06, R 1.52, A 2.57, V 3.28, D 0.756, F 3.2, Y 2.22, T 2.46, E 1.12, H 1.67, P 1.19, Q 1.4, I 3.53, M 3.58
L32: I 3.52, A 2.77, G 2.16, D 1.84, K 2.5, H 2.96, F 3.66, E 2.04, C 2.76
V22: I 3.48, P 2.22, T 3.19, Y 3.44, N 2.76, R 3.59, K 3.3, H 3.5, F 2.52, G 2.36, M 3, Q 2.95, S 3.02, A 2.95, L 3.49, C 2.88, E 2.47, D 1.76, W 3.11
N30: F 3.65, M 3.63, E 3.4, I 3.36, Q 3.4, H 3.52, P 2.6, W 3.71, A 3.62, D 3.72, V 3.38, K 3.59, Y 3.57, T 3.44, G 3.6, L 3.64, R 3.54, S 3.63, C 3.37
R26: A 2.49, F 3.31, D 1.78, W 3.63, P 1.55, V 3.11, G 1.92, M 3.44, H 3.19, C 2.88, T 2.57, K 3.37, E 2.14, N 2.59, Q 2.72, S 2.42, L 3.38, I 3.22, Y 3.53
G16: W 2.29, C 2.92, V 2.42, T 2.43, N 3.36, F 2.75, Q 3.25, D 3.28, I 2.21, E 2.93, A 2.96, P 2.11, K 3.04, S 3.03, Y 2.49, H 2.95, L 2.97, M 3.04, R 2.65
D23: M 3.5, I 3.63, G 3.56, S 3.55, W 3.66, T 3.65, V 3.54, F 4.04, K 3.64, N 3.45, C 3.67, E 3.74, H 3.84, A 3.58, P 3.44, R 3.33, L 3.63, Y 4.04, Q 3.65
